{
  "source": "patent US20210155701A1",
  "about": "(Chugai, published 2021)",
  "binders": {"B1": {"name": "IL6R90-G1m/VK2-28-k0MT (antibody, human IgG1, kappa, V domains shown)", "VH": "EVQLVESGGGLVQPGGSLRLSCAASGFTFDDYGMSWVRQAPGKALEWVSAISWNGNNTYYTESMKGRFTISRDNAKNTLYLQMNSLRPEDTAVYYCVKGSTAIVGVPPTYPDEYDYWGQGTLVTVSS", "VL": "not shown", "notes": "IgG antibody-like molecule"}, "B2": {"name": "IL6R90-G1m/VL1-44-lamL (antibody, human IgG1, lambda, V domains shown)", "VH": "B1 VH", "VL": "not shown", "notes": "IgG antibody-like molecule"}, "B3": {"name": "IL6R90-G1m/VL1-40-lamL (antibody, human IgG1, lambda, V domains shown)", "VH": "B1 VH", "VL": "QSVLTQPPSVSGAPGQRVTISCTGSSSNIGAGYDVHWYQQLPGTAPKLLIYGNSNRPSGVPDRFSGSKSGTSASLAITGLQAEDEADYYCQSYDNSLNAVVFGGGTKLTVLG", "notes": "IgG antibody-like molecule"}, "B4": {"name": "IL6R90-G1m/VL2-14-lamL (antibody, human IgG1, lambda, V domains shown)", "VH": "B1 VH", "VL": "QSALTQPASVSGSPGQSITISCTGTSSDVGGYNYVSWYQQHPGKAPKLMIYEVSNRPSGVSNRFSGSKSGNTASLTISGLQAEDEADYYCSSYRSGYTLVVFGGGTKLTVLG", "notes": "IgG antibody-like molecule"}, "B5": {"name": "20A11-G1m/VK1-39-k0MT (antibody, human IgG1, kappa, V domains shown)", "VH": "EVQLVESGGGLVQPGGSLRLSCAASGSVFKINVMAWYRQAPGKGRELVAGIISGGSTSYADSVKGRFTISRDNAKNTLYLQMNSLRPEDTAVYYCAFITTESDYDLGRRYWGQGTLVTVSS", "VL": "DIQMTQSPSSLSASVGDRVTITCRASQSISSYLNWYQQKPGKAPKLLIYAASSLQSGVPSRFSGSGSGTDFTLTISSLQPEDFATYYCLQFDSYPLTFGGGTKVEIKR"}, "B6": {"name": "20A11-G1m/VL3-21-lamL (antibody, human IgG1, lambda, V domains shown)", "VH": "B5 VH", "VL": "SYVLTQPPSVSVAPGKTARITCGGNNIGSKSVHWYQQKPGQAPVLVIYYDSDRPSGIPERFSGSNSGNTATLTISRVEAGDEADYYCQAWDSSTDVVFGGGTKLTVLG"}, "B7": {"name": "20A11-G1m/VL1-44-lamL (antibody, human IgG1, lambda, V domains shown)", "VH": "B5 VH", "VL": "not shown"}, "B8": {"name": "20A11-G1m/VL2-14-lamL (antibody, human IgG1, lambda, V domains shown)", "VH": "B5 VH", "VL": "B4 VL"}, "B9": {"name": "20A11-G1m/VK2-28-k0MT (antibody, human IgG1, kappa, V domains shown)", "VH": "B5 VH", "VL": "not shown"}, "B10": {"name": "20A11-G1m/VL1-40-lamL (antibody, human IgG1, lambda, V domains shown)", "VH": "B5 VH", "VL": "B3 VL"}, "B11": {"name": "PX02-R4_017-G1mISHI01/VK1-39-k0MT (before protease treatment) (antibody, human IgG1, kappa, V domains shown)", "VH": "QVQLVESGGGLVQPGGSLRLSCTASGISFSISTMGWYRQAPGKQRELVATITSGGEAYYANSMKDRFTISRDNAENTVYLQMNRLKPEDSAVYYCNTKFPWSTDWNARGQGTQVTVSG", "VL": "B5 VL", "notes": "Uncleaved"}, "B12": {"name": "PX03-R4_009-G1mISHI01/VK1-39-k0MT (before protease treatment) (antibody, human IgG1, kappa, V domains shown)", "VH": "B11 VH with V2L, T52A, M63V, D65G, D72E, N73Y, Y79F", "VL": "B5 VL", "notes": "Uncleaved"}, "B13": {"name": "PX03-R2_006-G1mISHI01/VK1-39-k0MT (before protease treatment) (antibody, human IgG1, kappa, V domains shown)", "VH": "B11 VH with V2L, T52A, M63V, D65G", "VL": "B5 VL", "notes": "Uncleaved"}, "B14": {"name": "bC3edL1R1N161H01 (VHH)", "VHH": "QVQLVESGGGLVQPGGSLRLSCAASGFPFDNYVMSWVRQAPGKGLEWISAISWNGGSTYYAESMKGRFTISRDNAKSTLYLQMNSLKSEDTAVYYCAKEPRVYYSGSPDYWGQGTQVTVSG"}, "B15": {"name": "bC3edL1R1N164H01 (VHH)", "VHH": "QVQLVESGGGLVQPGGSLRLSCAASGFTFDVYGMSWVRHSPGKGLEWVSTINWNGGSTYYAESMKGRFTISRDNAKNTVYLQMNSLKPEDTAVYYCAKFAPWDGDMEWGQGTQVTVSG"}, "B16": {"name": "bC3edL1R1N160H01 (VHH)", "VHH": "QVQLVESGGGLVQPGGSLRLSCAASGFTFNHCWMYWVRQAPGKGLEWVSVINTDGGSAYYADSVKGRFTISRDNAKNTLYLQMNSLKSEDTAVYYCARDWAPLVDYYYGMDYWGKGTLVTVSG"}, "B17": {"name": "bC3edL1R1N161H01-G1mISHI01/VK1-39-k0MT (before protease treatment) (antibody, human IgG1, kappa, V domains shown)", "VH": "B14 VHH", "VL": "B5 VL", "notes": "Uncleaved"}, "B18": {"name": "bC3edL1R1N160H01-G1mISHI01/VK1-39-k0MT (before protease treatment) (antibody, human IgG1, kappa, V domains shown)", "VH": "B16 VHH", "VL": "B5 VL"}, "B19": {"name": "bC3edL1R1N164H01-G1mISHI01/VK1-39-k0MT (before protease treatment) (antibody, human IgG1, kappa, V domains shown)", "VH": "B15 VHH", "VL": "B5 VL", "notes": "Uncleaved"}, "B20": {"name": "20A11hu-G1m/VL1-40-lamL (antibody, human IgG1, lambda, V domains shown)", "VH": "B5 VH with Y37V, R45L, L47W", "VL": "B3 VL"}, "B21": {"name": "20A11hu-G1m/VK1-39-k0MT (antibody, human IgG1, kappa, V domains shown)", "VH": "B5 VH with Y37V, R45L, L47W", "VL": "B5 VL"}, "B22": {"name": "20A11hu-G1m/VK2-28-k0MT (antibody, human IgG1, kappa, V domains shown)", "VH": "B5 VH with Y37V, R45L, L47W", "VL": "not shown"}, "B23": {"name": "20A11hu-G1m/VL2-14-lamL (antibody, human IgG1, lambda, V domains shown)", "VH": "B5 VH with Y37V, R45L, L47W", "VL": "B4 VL"}, "B24": {"name": "20A11hu-G1m/VL1-44-lamL (antibody, human IgG1, lambda, V domains shown)", "VH": "B5 VH with Y37V, R45L, L47W", "VL": "not shown"}},
  "note": "Positions count from the first letter of the chain named.",
  "data": [
    {"target": "T1, soluble human IL-6R (human, UniProt P08887 20-357)", "T1 construct": "also called hsIL-6R; recombinant human IL6R", "T1 sequence": "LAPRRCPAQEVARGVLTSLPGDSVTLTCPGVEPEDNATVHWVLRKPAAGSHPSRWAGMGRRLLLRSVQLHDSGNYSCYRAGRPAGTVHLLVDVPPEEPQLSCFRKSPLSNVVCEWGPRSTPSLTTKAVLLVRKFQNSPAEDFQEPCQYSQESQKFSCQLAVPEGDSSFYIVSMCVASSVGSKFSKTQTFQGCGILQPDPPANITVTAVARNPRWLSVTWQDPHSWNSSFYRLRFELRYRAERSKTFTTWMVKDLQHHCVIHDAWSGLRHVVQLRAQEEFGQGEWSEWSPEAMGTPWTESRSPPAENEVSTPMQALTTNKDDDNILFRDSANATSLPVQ", "test": "BLI (Octet HTX), molecule on Protein A biosensor, hsIL-6R as analyte, 30 degrees C", "description": "The hsIL-6R binding evaluation of each molecule was conducted using Octet HTX (Pall ForteBio Corp.). Specifically, each molecule was bound to Biosensor/Protein A (ProA) (Pall ForteBio Corp., 18-5013), and hsIL-6R was allowed to act thereon, followed by binding evaluation at 30 degrees C.", "values": [
      {"binder": "B1", "binding result": "no binding"},
      {"binder": "B2", "binding result": "no binding"},
      {"binder": "B3", "binding result": "no binding"},
      {"binder": "B4", "binding result": "no binding"}
    ]},
    {"target": "T1, soluble human IL-6R", "test": "BLI (Octet) as in Example 3", "values": [
      {"binder": "B5", "binding result": "binds"},
      {"binder": "B6", "binding result": "binds"},
      {"binder": "B7", "binding result": "binds"},
      {"binder": "B8", "binding result": "binds"},
      {"binder": "B9", "binding result": "binds"},
      {"binder": "B10", "binding result": "binds"}
    ]},
    {"target": "T2, biotinylated plexin A1 (human, UniProt Q9UIW2 27-1253, biotin on the AviTag sequence (SEQ ID NO: 36))", "T2 construct": "also called biotin-labeled human plexin A1; human plexin A1", "T2 sequence (Q9UIW2 other isoform, or with tags, fused parts or gaps limits assumed)": "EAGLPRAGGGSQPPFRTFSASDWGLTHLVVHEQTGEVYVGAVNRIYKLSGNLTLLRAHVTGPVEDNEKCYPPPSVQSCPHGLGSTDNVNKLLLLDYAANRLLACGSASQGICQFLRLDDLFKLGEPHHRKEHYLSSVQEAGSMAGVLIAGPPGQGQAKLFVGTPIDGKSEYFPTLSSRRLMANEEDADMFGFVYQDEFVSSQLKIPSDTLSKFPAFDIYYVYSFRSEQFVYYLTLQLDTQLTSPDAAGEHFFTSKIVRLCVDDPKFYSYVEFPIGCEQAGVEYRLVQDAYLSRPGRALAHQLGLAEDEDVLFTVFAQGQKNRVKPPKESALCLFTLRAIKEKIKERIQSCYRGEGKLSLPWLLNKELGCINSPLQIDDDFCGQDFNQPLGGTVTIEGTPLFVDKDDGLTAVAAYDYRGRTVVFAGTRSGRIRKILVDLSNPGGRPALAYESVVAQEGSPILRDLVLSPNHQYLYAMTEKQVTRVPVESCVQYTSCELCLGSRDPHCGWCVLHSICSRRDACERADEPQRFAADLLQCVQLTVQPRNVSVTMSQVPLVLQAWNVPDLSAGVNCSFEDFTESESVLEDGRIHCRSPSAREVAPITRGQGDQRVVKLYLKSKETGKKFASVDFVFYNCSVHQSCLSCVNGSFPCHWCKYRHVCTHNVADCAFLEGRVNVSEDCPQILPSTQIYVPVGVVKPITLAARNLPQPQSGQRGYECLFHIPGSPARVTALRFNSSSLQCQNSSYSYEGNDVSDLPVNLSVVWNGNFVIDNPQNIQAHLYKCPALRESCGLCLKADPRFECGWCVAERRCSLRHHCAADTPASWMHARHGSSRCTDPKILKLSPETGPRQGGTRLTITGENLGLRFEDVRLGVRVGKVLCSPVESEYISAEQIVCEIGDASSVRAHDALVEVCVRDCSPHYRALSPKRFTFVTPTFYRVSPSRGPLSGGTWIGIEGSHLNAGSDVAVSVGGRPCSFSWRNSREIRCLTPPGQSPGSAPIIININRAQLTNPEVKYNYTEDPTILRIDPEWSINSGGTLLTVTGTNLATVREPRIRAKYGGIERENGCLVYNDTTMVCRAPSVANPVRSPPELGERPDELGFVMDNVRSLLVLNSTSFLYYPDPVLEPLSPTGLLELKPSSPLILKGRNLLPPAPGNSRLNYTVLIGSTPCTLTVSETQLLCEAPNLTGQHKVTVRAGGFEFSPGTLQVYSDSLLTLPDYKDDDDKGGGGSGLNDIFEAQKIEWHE", "test": "BLI (Octet) as in Example 3", "values": [
      {"binder": "B11", "binding result": "no binding"},
      {"binder": "B12", "binding result": "no binding"},
      {"binder": "B13", "binding result": "no binding"}
    ]},
    {"target": "T3, human CD3ed-Fc (biotin-labeled human CD3 epsilon and human CD3 delta linked to a human antibody constant … (human, biotin-labeled (BirA co-expression); site not stated)", "T3 construct": "also called CD3 epsilon delta heterodimer fused with the antibody constant region", "T3 chain 1": "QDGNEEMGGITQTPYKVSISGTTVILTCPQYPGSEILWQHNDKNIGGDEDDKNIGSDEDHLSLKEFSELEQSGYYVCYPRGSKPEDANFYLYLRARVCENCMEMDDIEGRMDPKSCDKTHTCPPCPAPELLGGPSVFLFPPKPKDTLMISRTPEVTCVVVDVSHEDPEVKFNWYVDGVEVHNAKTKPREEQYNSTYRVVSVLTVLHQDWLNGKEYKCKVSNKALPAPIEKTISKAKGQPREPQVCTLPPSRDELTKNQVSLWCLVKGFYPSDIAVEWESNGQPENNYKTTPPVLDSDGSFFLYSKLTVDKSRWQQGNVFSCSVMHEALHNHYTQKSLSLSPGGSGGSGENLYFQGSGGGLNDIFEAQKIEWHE", "T3 chain 2": "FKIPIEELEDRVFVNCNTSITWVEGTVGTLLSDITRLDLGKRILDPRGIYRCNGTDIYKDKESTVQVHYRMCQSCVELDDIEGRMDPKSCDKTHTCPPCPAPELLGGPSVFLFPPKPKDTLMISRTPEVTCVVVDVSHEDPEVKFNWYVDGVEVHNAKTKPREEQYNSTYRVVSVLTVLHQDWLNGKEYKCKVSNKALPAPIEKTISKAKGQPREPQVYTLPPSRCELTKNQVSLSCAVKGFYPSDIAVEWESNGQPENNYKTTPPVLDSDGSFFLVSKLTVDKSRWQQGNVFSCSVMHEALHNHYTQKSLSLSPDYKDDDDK", "test": "phage display: phage ELISA or panning on biotin-labeled human CD3ed-Fc (binding clone for human CD3)", "values": [
      {"binder": "B14", "binding result": "binds"},
      {"binder": "B15", "binding result": "binds"},
      {"binder": "B16", "binding result": "binds"}
    ]},
    {"target": "T3, human CD3ed-Fc (biotin-labeled human …)", "test": "BLI (Octet RED) as in Example 3", "values": [
      {"binder": "B17", "binding result": "no binding"},
      {"binder": "B18", "binding result": "no binding"},
      {"binder": "B19", "binding result": "no binding"}
    ]},
    {"target": "T1, soluble human IL-6R", "test": "BLI (Octet) as in Example 3, 30 degrees C or 25 degrees C", "values": [
      {"binder": "B20", "binding result": "no binding"},
      {"binder": "B21", "binding result": "no binding"},
      {"binder": "B22", "binding result": "no binding"},
      {"binder": "B23", "binding result": "no binding"},
      {"binder": "B24", "binding result": "no binding"}
    ]}
  ]
}
